Data published in publication PMC5737657.

Key:
[1] = molecular target: T1, VapB26 antitoxin (ITC/EMSA) (Mycobacterium tuberculosis, UniProt O53778 1-71); experiment: ITC
[2] = molecular target: T1, VapB26 antitoxin (ITC/EMSA); experiment: ITC; remark: listed apart in the source
[3] = molecular target: His6-VapB26 antitoxin (NMR) (Mycobacterium tuberculosis, UniProt O53778 1-71); experiment: NMR
[4] = molecular target: T1, VapB26 antitoxin (ITC/EMSA); experiment: EMSA

T1 sequence (O53778 whole entry): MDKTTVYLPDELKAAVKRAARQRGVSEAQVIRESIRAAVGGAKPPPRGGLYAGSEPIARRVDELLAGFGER
His6-VapB26 antitoxin (NMR), sequence (O53778 whole entry): as above

B1: vapBC26 promoter DNA (19 bp) (dsDNA)
DNA 1: TTCGCGGCTACGCCGACAA
DNA 2: TTGTCGGCGTAGCCGCGAA
Kd [1]: 4.69 ± 0.81 µM

B2: control DNA 'X' (dsDNA)
DNA 1: GATTTTTTTTGATTTTTTT
DNA 2: AAAAAAATCAAAAAAAATC
binding result [2]: no binding
binding result [3]: no binding

B3: palindromic DNA 'b' (dsDNA)
DNA 1: TAATAGAATAATAAGTATCACTCCTTTA
DNA 2: TAAAGGAGTGATACTTATTATTCTATTA
binding result [4]: no binding

B4: palindromic DNA 'a' (dsDNA)
DNA 1: TATTTTAATAACTTAAAAGT
DNA 2: ACTTTTAAGTTATTAAAATA
binding result [4]: no binding
